In publication PMC6591005:

Biological target: GII.4.2002 P domain (human norovirus GII.4 2002 (Farmington Hills))
Assay: crystal structure

GII.4.2002 P domain (domain or fragment)
stoichiometry N: 2
